Where two headings read alike, the source gives them in different places.
Assays:
ubiquitin (Homo sapiens) [1] = molecular target: ubiquitin (Homo sapiens) (UniProt P0CG48); conditions: cited from earlier work
Atto532-tUI [2] = molecular target: Atto532-tUI (UniProt Q9UMX0); assay: other fluorescence titration
ubiquitin (Homo sapiens) [3] = molecular target: ubiquitin (Homo sapiens) (UniProt P0CG48); conditions: cited from earlier work; remark: listed apart in the source
Atto532-tUI [4] = molecular target: Atto532-tUI (UniProt Q9UMX0); assay: stopped-flow fluorescence kinetics
tUI = tUI (UniProt Q9UMX0); assay: other fluorescence titration

Chain of Rabex5 RUZ RUZ (Q9UJ41 13-47): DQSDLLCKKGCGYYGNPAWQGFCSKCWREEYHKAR
Chain of IsoT BUZ BUZ (P45974 173-289): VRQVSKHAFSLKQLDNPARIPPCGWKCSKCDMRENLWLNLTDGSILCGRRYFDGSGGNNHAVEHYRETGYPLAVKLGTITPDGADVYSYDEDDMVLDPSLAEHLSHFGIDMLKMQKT
Chain of Nedd8 (Q15843 1-76): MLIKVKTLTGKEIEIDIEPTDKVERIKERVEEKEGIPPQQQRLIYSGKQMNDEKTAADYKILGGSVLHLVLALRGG

## IsoT BUZ BUZ (from UniProt P45974)
Ubiquitin (Homo sapiens) [1]
  Kd: 3000 nM

## Nedd8 (from UniProt Q15843 1-76) (natural protein)
Atto532-tUI [2]
  fold higher affinity for Ub than Nedd8: 120 fold

## Rabex5 RUZ RUZ (from UniProt Q9UJ41)
Ubiquitin (Homo sapiens) [3]
  Kd: 12000 nM

## ubiquitin (free Ub) (from UniProt P0CG48 1-76) (natural protein)
Atto532-tUI [4]
  Kd: 0.0564 nM
tUI
  Ki: 0.194 nM
Atto532-tUI [2]
  Kd: 0.066 nM
